This is an account of results in patent publication US20240401082A1 (Sanofi, published 2024).

In general, Kd refers to the free concentration of one partner at which half of the binding sites on the other are occupied at equilibrium, for simple one-to-one binding. Read a low Kd as a tighter complex. In general, koff refers to the first-order rate constant of dissociation. Low readings indicate a long-lived complex, high ones a short-lived complex. Usually kon stands for a measure of how fast the partners come together.

Test [1] has as its target T1, human complement C1s enzyme (activated C1s) (human, UniProt P09871 16-437; P09871 438-688).
T1 sequence 1: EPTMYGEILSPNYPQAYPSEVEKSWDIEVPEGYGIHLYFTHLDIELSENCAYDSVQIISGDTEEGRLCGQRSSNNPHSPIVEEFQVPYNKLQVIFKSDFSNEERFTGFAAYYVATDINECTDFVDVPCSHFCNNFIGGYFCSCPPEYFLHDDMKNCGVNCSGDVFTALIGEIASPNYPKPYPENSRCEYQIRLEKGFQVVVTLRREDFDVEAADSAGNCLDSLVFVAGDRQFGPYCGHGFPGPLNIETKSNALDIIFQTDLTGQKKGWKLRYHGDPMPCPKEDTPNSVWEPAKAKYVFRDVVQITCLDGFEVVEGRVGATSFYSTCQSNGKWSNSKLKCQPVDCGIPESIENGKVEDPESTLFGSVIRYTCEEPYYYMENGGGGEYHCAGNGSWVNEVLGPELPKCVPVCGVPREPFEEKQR
T1 sequence 2: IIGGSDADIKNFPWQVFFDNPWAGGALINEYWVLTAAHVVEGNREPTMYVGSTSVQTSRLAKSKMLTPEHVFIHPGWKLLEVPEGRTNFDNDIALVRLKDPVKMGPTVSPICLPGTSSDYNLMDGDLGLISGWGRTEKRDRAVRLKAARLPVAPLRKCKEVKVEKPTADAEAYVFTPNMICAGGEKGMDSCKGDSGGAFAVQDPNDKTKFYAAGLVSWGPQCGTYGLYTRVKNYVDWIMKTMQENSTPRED
As to the kind of experiment: cell-based or functional assay.

The target of test [2] is T2, human complement factor Bb (human, UniProt P00751 260-764). Description: cell-based or functional assay.
Test [3] deals with T1, human complement C1s enzyme (activated …). Description: BLI (Octet), biotinylated target on streptavidin sensor. The source says: (§1) Bio-layer interferometry (BLI) was used to assess the recombinant proteins' target engagement to and binding affinity for complement C1s enzyme (active C1s or “C1s” herein) and factor Bb (Bb) (Complement Technology, Tyler, TX, USA). C1s and Bb were biotinylated with EZ-Link™ Sulfo-NHS-LC-LC-Biotin (Thermo Fisher, Waltham, MA, USA) according to manufacturer instructions. Biotinylated C1s or Bb was loaded on Octet® Streptavidin (SA) Biosensors (Sartorius, Göttingen, Germany), followed by a concentration range of purified proteins. To assess dual target engagement, biotinylated active C1s or Bb was loaded onto sensors, followed by purified proteins (“first association phase”), followed by the non-captured complement target (Bb or active C1s, non-biotinylated; “second association phase”). The assays were performed at 30° C. using PBS with 0.1% Tween 20 as a diluent (FIG. 3).
Background: Biolayer interferometry detects binding as a change in optical thickness at a sensor tip.

The target in test [4] is T2, human complement factor Bb. Described as above.
Text: as §1

T2 sequence (P00751 260-764): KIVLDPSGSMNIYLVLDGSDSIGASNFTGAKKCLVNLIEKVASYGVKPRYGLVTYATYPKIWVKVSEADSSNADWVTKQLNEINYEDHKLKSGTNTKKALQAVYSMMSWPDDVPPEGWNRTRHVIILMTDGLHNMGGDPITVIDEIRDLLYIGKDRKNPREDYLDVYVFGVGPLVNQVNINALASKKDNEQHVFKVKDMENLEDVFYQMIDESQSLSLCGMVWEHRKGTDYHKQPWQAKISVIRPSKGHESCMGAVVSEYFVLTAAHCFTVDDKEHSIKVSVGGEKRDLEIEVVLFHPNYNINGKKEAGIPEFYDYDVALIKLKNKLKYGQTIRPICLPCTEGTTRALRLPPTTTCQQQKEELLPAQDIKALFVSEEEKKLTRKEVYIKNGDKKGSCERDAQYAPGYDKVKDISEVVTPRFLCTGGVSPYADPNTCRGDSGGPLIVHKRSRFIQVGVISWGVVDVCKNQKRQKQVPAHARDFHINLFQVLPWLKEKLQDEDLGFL

B1: construct #6: αBb scFv-(G4S)2-αC1s scFv (bispecific antibody)
chain: EVQLVESGGGLVKPGGSLRLSCAASGFTFSNYAMSWVRQAPGKRLEWVATISNRGSYTYYPDSVKGRFTISRDNAKNSLYLQMNSLRAEDTALYYCARERPMDYWGQGTLVTVSSGGGGSGGGGSGGGGSDIQMTQSPSTLSASVGDRVTITCKASQDVGTAVAWYQQKPGKAPKLLIYWASTRHTGVPDRFSGSGSGTDFTLTISSLQAEDFAVYFCHQHSSNPLTFGQGTKLEIKGGGGSGGGGSQVQLVQSGAEVKKPGASVKLSCTASGFNIKDDYIHWVKQAPGQGLEWIGRIDPADGHTKYAPKFQVKVTITADTSTSTAYLELSSLRSEDTAVYYCARYGYGREVFDYWGQGTTVTVSSGGGGSGGGGSGGGGSDIVLTQSPDSLAVSLGERATISCKASQSVDYDGDSYMNWYQQKPGQPPKILIYDASNLESGIPARFSGSGSGTDFTLTISSLEPEDFAIYYCQQSNEDPWTFGGGTKVEIK
With B1, the “IC50 CP (Wieslab)” value in test [1] stood at 118 nM. For the same molecule, the “IC50 AP (Wieslab); curve not saturated, estimated” value in test [2] is about 1260 nM.

B2: construct #19: αC1s scFab-(G4S)3-αBb F2A Fab (bispecific antibody)
chain: DIVLTQSPDSLAVSLGERATISCKASQSVDYDGDSYMNWYQQKPGQPPKILIYDASNLESGIPARFSGSGSGTDFTLTISSLEPEDFAIYYCQQSNEDPWTFGGGTKVEIKRTVAAPSVFIFPPSDEQLKSGTASVVCLLNNFYPREAKVQWKVDNALQSGNSQESVTEQDSKDSTYSLSSTLTLSKADYEKHKVYACEVTHQGLSSPVTKSFNRGECGGGGSGGGGSGGGGSGGGGSGGGGSGGGGSGGGGSQVQLVQSGAEVKKPGASVKLSCTASGFNIKDDYIHWVKQAPGQGLEWIGRIDPADGHTKYAPKFQVKVTITADTSTSTAYLELSSLRSEDTAVYYCARYGYGREVFDYWGQGTTVTVSSASTKGPSVFPLAPCSRSTSESTAALGCLVKDYFPEPVTVSWNSGALTSGVHTFPAVLQSSGLYSLSSVVTVPSSSLGTKTYTCNVDHKPSNTKVDKRVGGGGSGGGGSGGGGSEVQLVESGGGLVKPGGSLRLSCAASGFTFSNYAMSWVRQAPGKRLEWVATISNRGSYTYYPDSVKGRFTISRDNAKNSLYLQMNSLRAEDTALYYCARERPMDYWGQGTLVTVSSASTKGPSVFPLAPCSRSTSESTAALGCLVKDYFPEPVTVSWNSGALTSGVHTFPAVLQSSGLYSLSSVVTVPSSSLGTKTYTCNVDHKPSNTKVDKRV
light: DIQMTQSPSTLSASVGDRVTITCKASQDVGTAVAWYQQKPGKAPKLLIYWASTRHTGVPDRFSGSGSGTDFTLTISSLQAEDFAVYFCHQHSSNPLTFGQGTKLEIKRTVAAPSVFIFPPSDEQLKSGTASVVCLLNNFYPREAKVQWKVDNALQSGNSQESVTEQDSKDSTYSLSSTLTLSKADYEKHKVYACEVTHQGLSSPVTKSFNRGEC
Take B2: the “IC50 CP (Wieslab)” value in test [1] came to 34 nM. Also, the “IC50 AP (Wieslab); curve not saturated, estimated” value in test [2] is about 2090 nM.

B3: construct #13: αC1s scFab-(G4S)2-αBb scFv (bispecific antibody)
chain: DIVLTQSPDSLAVSLGERATISCKASQSVDYDGDSYMNWYQQKPGQPPKILIYDASNLESGIPARFSGSGSGTDFTLTISSLEPEDFAIYYCQQSNEDPWTFGGGTKVEIKRTVAAPSVFIFPPSDEQLKSGTASVVCLLNNFYPREAKVQWKVDNALQSGNSQESVTEQDSKDSTYSLSSTLTLSKADYEKHKVYACEVTHQGLSSPVTKSFNRGECGGGGSGGGGSGGGGSGGGGSGGGGSGGGGSGGGGSQVQLVQSGAEVKKPGASVKLSCTASGFNIKDDYIHWVKQAPGQGLEWIGRIDPADGHTKYAPKFQVKVTITADTSTSTAYLELSSLRSEDTAVYYCARYGYGREVFDYWGQGTTVTVSSASTKGPSVFPLAPCSRSTSESTAALGCLVKDYFPEPVTVSWNSGALTSGVHTFPAVLQSSGLYSLSSVVTVPSSSLGTKTYTCNVDHKPSNTKVDKRVGGGGSGGGGSEVQLVESGGGLVKPGGSLRLSCAASGFTFSNYAMSWVRQAPGKRLEWVATISNRGSYTYYPDSVKGRFTISRDNAKNSLYLQMNSLRAEDTALYYCARERPMDYWGQGTLVTVSSGGGGSGGGGSGGGGSDIQMTQSPSTLSASVGDRVTITCKASQDVGTAVAWYQQKPGKAPKLLIYWASTRHTGVPDRFSGSGSGTDFTLTISSLQAEDFAVYFCHQHSSNPLTFGQGTKLEIK
notes: Residues 1-20 were left out as the signal peptide, which is marked by boldface only
Regarding B3, the “IC50 CP (Wieslab)” value in test [1] stood at 44.4 nM. Moreover, the “IC50 AP (Wieslab)” value in test [2] was 201 nM. In test [3], this molecule returned an equilibrium dissociation constant (Kd) of 1 nM, a koff of 0.00029 s⁻¹ and a kon of 300000 M⁻¹ s⁻¹. In test [4], this molecule registered an equilibrium dissociation constant (Kd) of 3 nM, a koff of 0.00022 s⁻¹ and a kon of 70000 M⁻¹ s⁻¹.

B4: construct #8: αBb scFab-(G4S)3-αC1s scFab (bispecific antibody)
chain: DIQMTQSPSTLSASVGDRVTITCKASQDVGTAVAWYQQKPGKAPKLLIYWASTRHTGVPDRFSGSGSGTDFTLTISSLQAEDFAVYFCHQHSSNPLTFGQGTKLEIKRTVAAPSVFIFPPSDEQLKSGTASVVCLLNNFYPREAKVQWKVDNALQSGNSQESVTEQDSKDSTYSLSSTLTLSKADYEKHKVYACEVTHQGLSSPVTKSFNRGECGGGGSGGGGSGGGGSGGGGSGGGGSGGGGSGGGGSEVQLVESGGGLVKPGGSLRLSCAASGFTFSNYAMSWVRQAPGKRLEWVATISNRGSYTYYPDSVKGRFTISRDNAKNSLYLQMNSLRAEDTALYYCARERPMDYWGQGTLVTVSSASTKGPSVFPLAPCSRSTSESTAALGCLVKDYFPEPVTVSWNSGALTSGVHTFPAVLQSSGLYSLSSVVTVPSSSLGTKTYTCNVDHKPSNTKVDKRVGGGGGSGGGGSGGGGSDIVLTQSPDSLAVSLGERATISCKASQSVDYDGDSYMNWYQQKPGQPPKILIYDASNLESGIPARFSGSGSGTDFTLTISSLEPEDFAIYYCQQSNEDPWTFGGGTKVEIKRTVAAPSVFIFPPSDEQLKSGTASVVCLLNNFYPREAKVQWKVDNALQSGNSQESVTEQDSKDSTYSLSSTLTLSKADYEKHKVYACEVTHQGLSSPVTKSFNRGECGGGGSGGGGSGGGGSGGGGSGGGGSGGGGSGGGGSQVQLVQSGAEVKKPGASVKLSCTASGFNIKDDYIHWVKQAPGQGLEWIGRIDPADGHTKYAPKFQVKVTITADTSTSTAYLELSSLRSEDTAVYYCARYGYGREVFDYWGQGTTVTVSSASTKGPSVFPLAPCSRSTSESTAALGCLVKDYFPEPVTVSWNSGALTSGVHTFPAVLQSSGLYSLSSVVTVPSSSLGTKTYTCNVDHKPSNTKVDKRV
notes: Signal peptide marked by boldface only
As for B4, in test [1], the “IC50 CP (Wieslab)” value is 87.7 nM. The “IC50 AP (Wieslab)” value in test [2] was 420 nM. For the same molecule, in test [3], the affinity, expressed as Kd, was 2.1 nM; the off-rate constant (koff) is 0.00063 s⁻¹; the on-rate constant (kon) was found to be 300000 M⁻¹ s⁻¹. In test [4], this molecule came in with a Kd of 1.8 nM, an off-rate constant (koff) of 0.00021 s⁻¹ and a kon of 120000 M⁻¹ s⁻¹.

B5: construct #5: αC1s scFv-(G4S)2-αBb scFv (bispecific antibody)
chain: QVQLVQSGAEVKKPGASVKLSCTASGFNIKDDYIHWVKQAPGQGLEWIGRIDPADGHTKYAPKFQVKVTITADTSTSTAYLELSSLRSEDTAVYYCARYGYGREVFDYWGQGTTVTVSSGGGGSGGGGSGGGGSDIVLTQSPDSLAVSLGERATISCKASQSVDYDGDSYMNWYQQKPGQPPKILIYDASNLESGIPARFSGSGSGTDFTLTISSLEPEDFAIYYCQQSNEDPWTFGGGTKVEIKGGGGSGGGGSEVQLVESGGGLVKPGGSLRLSCAASGFTFSNYAMSWVRQAPGKRLEWVATISNRGSYTYYPDSVKGRFTISRDNAKNSLYLQMNSLRAEDTALYYCARERPMDYWGQGTLVTVSSGGGGSGGGGSGGGGSDIQMTQSPSTLSASVGDRVTITCKASQDVGTAVAWYQQKPGKAPKLLIYWASTRHTGVPDRFSGSGSGTDFTLTISSLQAEDFAVYFCHQHSSNPLTFGQGTKLEIK
As to B5, the “IC50 CP (Wieslab)” value in test [1] was 216 nM. In addition, the “IC50 AP (Wieslab); curve not saturated, estimated” value in test [2] was about 2830 nM.
